Test results published in patent publication US20210093695A1, “Method” (APITOPE TECHNOLOGY (BRISTOL) LIMITED, priority 2017, published 2021).

B1: MBP: myelin basic protein (MBP, Sigma, M1891), full length (protein, UniProt P02686 1-304, looked up)
Myelin basic protein: MGNHAGKRELNAEKASTNSETNRGESEKKRNLGELSRTTSEDNEVFGEADANQNNGTSSQDTAVTDSKRTADPKNAWQDAHPADPGSRPHLIRLFSRDAPGREDNTFKDRPSESDELQTIQEDSAATSESLDVMASQKRPSQRHGSKYLATASTMDHARHGFLPRHRDTGILDSIGRFFGGDRGAPKRGSGKDSHHPARTAHYGSLPQKSHGRTQDENPVVHFFKNIVTPRTPPPSQGKGRGLSLSRFSWGAEGQRPGFGYGGRASDYKSAHKGFKGVDAQGTLSKIFKLGGRDSRSGSPMARR

What was measured:
HLA-DQ6 = HLA-DQ6 binding of MBP peptides; design: species or system human
HLA-DR2 = HLA-DR2 (Homo sapiens, UniProt P01903+P01911); assay: HLA-DR2 binding of MBP peptides
[1] = tested on: double-transgenic (DTg; human HLA-DR15/MBP-specific T-cell receptor) humanized mice; assay: SCH-induced EAE in double-transgenic humanized mice, clinical score; format: in vivo, mouse; conditions: once weekly from Day 0; ATX-MS-1467 100 μg/dose, MBP82-98 12 μg or 100 μg/dose
Protocol: In double-transgenic (DTg; human HLA-DR15/MBP-specific T-cell receptor) ‘humanized’ mice, EAE was induced using an emulsification of spinal cord homogenate (SCH) and CFA on Day 0. Mice also received a pertussis toxin injection on Days 0 and 2.
Throughout the study, neurological deficits were measured using a standardized clinical score scale: 0=no clinical signs, 1=limp tail, 2=impaired righting reflex, 3=partial hind limb paralysis, 4=complete hind limb paralysis, 5=moribund/death.
If animals reached a score of 4 they were euthanized to reach a humane endpoint.
[…] were treated prophylactically either with subcutaneous (sc) phosphate-buffered saline (PBS) vehicle or ATX-MS-1467 (n=10 per treatment group) starting 3 weeks before EAE induction. […]
ATX-MS-1467 was tested head-to-head with MBP82-98 and GA. […] For both compounds, the human equivalent dose (HED) was calculated based on body surface area: MBP82-98=12 μg/dose and GA=75 μg (3.75 mg/kg)/dose.
Statistical analyses for significant differences on clinical scores by treatment over time and cumulative clinical scores (area under the curve) were performed using Kruskal-Wallis with Dunn's post hoc analysis of comparisons. Disease onset was analyzed by Kaplan-Meier curve and significance was determined using the log-rank (Mantel-Cox) test. Cellular brain infiltrates were analyzed by Student's t-test. […]

DR2/Ob1Het/Het mice = assay: Serum cytokine levels after s.c. treatment/challenge (Milliplex); format: in vivo, mouse
Protocol: Double transgenic heterozygous mice, referred to here as DR2/Ob1Het/Het, were used for these studies. These mice express human leukocyte antigen (HLA) isotypes DRA*0101 and DRB1*1501 under the mouse major histocompatibility […] promoter and the MBP84-102-specific TCR (Ob.1A12) expressed under mouse TCRα and β promoter/enhancer elements.
DR2/Ob1Het/Het mice were treated and/challenged by a single or multiple subcutaneous (s.c.) injections of 100 μg of ATX-MS-1467 or 25 μg of a HLA binding protein (HLAbp) unrelated to EAE and/or 30-1000 μg of myelin basic protein (MBP, Sigma, M1891). Treatment paradigms varied between studies and groups (see specifics in each study). Chronic treatment with ATX-MS-1467 or with HLAbp followed a 3× weekly regimen.
Cytokine levels were quantified in serum of DR2/Ob1Het/Het mice at different time points using a Milliplex MAP mouse Cytokine/Chemokine magnetic kit (MCYTOMAG-70-PMX).

HLA-DR2, sequence (P01903 26-254): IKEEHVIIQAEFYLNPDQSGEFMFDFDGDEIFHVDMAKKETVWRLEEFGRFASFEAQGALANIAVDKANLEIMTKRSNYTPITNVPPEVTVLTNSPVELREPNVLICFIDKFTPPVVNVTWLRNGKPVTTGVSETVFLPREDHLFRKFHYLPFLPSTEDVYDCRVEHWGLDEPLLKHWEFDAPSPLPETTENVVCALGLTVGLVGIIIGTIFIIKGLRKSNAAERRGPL
HLA-DR2, sequence (P01911 30-266): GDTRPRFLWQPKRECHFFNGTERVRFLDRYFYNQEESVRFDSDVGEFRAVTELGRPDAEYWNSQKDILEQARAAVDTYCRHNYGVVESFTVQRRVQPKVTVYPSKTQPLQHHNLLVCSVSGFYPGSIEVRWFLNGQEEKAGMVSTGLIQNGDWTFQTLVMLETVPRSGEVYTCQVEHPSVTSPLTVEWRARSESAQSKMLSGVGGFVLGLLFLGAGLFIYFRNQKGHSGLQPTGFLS

Molecule | HLA-DQ6 binding (HLA-DQ6) | HLA-DR2 binding (HLA-DR2) | also measured
H-Ala-Ser-Asp-Tyr-Lys-Ser-Ala-His-Lys-Gly-Phe-Lys-Gly-Val-Asp-NH2 (H-ASDYKSAHKGFKGVD-NH2) [MBP 131-145] | HLA-DQ6 binding |  | 
H-Glu-Asn-Pro-Val-Val-His-Phe-Phe-Lys-Asn-Ile-Val-Thr-Pro-Arg-Thr-Pro-NH2 (H-ENPVVHFFKNIVTPRTP-NH2) [MBP 83-99] |  | HLA-DR2 binding | 
H-Gly-Phe-Lys-Gly-Val-Asp-Ala-Gln-Gly-Thr-Leu-Ser-Lys-Ile-Phe-NH2 (H-GFKGVDAQGTLSKIF-NH2) [MBP 140-154] |  | HLA-DR2 binding | 
H-Pro-Arg-His-Arg-Asp-Thr-Gly-Ile-Leu-Asp-Ser-Ile-Gly-Arg-Phe-NH2 (H-PRHRDTGILDSIGRF-NH2) [MBP 30-44] | HLA-DQ6 binding |  | 
MBP82-98: 17-amino acid synthetic peptide identical to MBP (dirucotide) |  |  | disease severity vs vehicle [1]: did not show significant effects
B1 |  |  | dose dependence of serum cytokine secretion (DR2/Ob1Het/Het mice; 2 h after s.c. injection, 30-1000 μg): dose-dependent secretion of cytokines; cytokine secretion in the blood after acute treatment (DR2/Ob1Het/Het mice; single s.c. injection, FIG. 4 (MBP), FIG. 5 (ATX-MS-1467 100 μg/mouse)): induces the secretion of both pro and anti-inflammatory cytokines
